# Laboratory results reported in patent publication US20160136236A1 (MODERNA THERAPEUTICS, published 2016).
# Molecular target: T1, BODIPY-labeled LDL (low density lipoprotein) (UniProt P04114 28-4563, BODIPY fluorescent label, site not stated)
# T1 construct: A lipoprotein particle (protein and lipid), not a pure protein; also called BODIPY-LDL; LDL-BODIPY
# Assay: FACS; increasing amounts of BODIPY-LDL for 1 h at 37 C on HEK293 cells transfected with LDLR mRNA
binder,measurement,value
"wild type (WT) human low density lipoprotein receptor (LDLR) (receptor, also called LDL receptor; wild-type LDLR) not shown",Kd,~0.06 mg/L
